# Laboratory results: PMC10848425, “Selective enhanced cytotoxicity of amino acid deprivation for cancer therapy using thermozyme functionalized nanocatalyst” (Journal of Nanobiotechnology, 2024)
# B1: asparaginase Tli10209 (Thermococcus litoralis DSM 5473) (protein)
# chain: MSEKRKLERRGAEDMKRILIIGTGGTIASAKTDAGFKSVLTIDEILEKADIKLKNGYEIDTRNILNIDSTLIQPEDWERIAKEVYKALEDYDGIVITHGTDTLAYTASMLTFMIRGINKPVVLTGSMRPVTEEESDAPRNLKAAIRFAMEDVSGIFVAFMDKIMLGCRTSKIRALGLNAFMSINYPDVAYVKGEEVIYNLPQKRFKPKGEPVLDTKYEPRVVFIRLTPGLDGNAIDALVKAGYRGIVLEGYGAGGIPYRKRDILSKIREITPQIPVVMTTQALYDGVDLTKYEVGRKALEAGIIPAKDMTKETTITKLMWALGHTKNVEEVKEIMHTNYADEIEG
# notes: recombinant, purified by Ni2+-NTA; free enzyme; expression details in supplement
# B2: asparaginase Ttha0067 (Thermus thermophilus HB8) (protein)
# chain: MSAEVLVYRGSLVENRHRVSLALWGPEGLVAYAGDPGRVAYLRSSAKPFQALALYLTGAVERFGLTEEEVALATASHDGTPRHVEVAARFLGKLGLGPEHLVCGVHPPFSREARAALEAQGLAPTPLHHNCSGKHAGMLAAALALGAPAEGYHLPDHPVQRLNLATLEALSGARPGLATDGCSVPTFALSLARAARAFFLLADPGRAPEAYRTPLLRVREAMRRHPDLVAGPGSVDTLLMERLPVVAKRGADGYYGLALLEGPRGPLGVALKVEDGATLAREVAVVALLRALGLDPGKTPWDRPPVRNHRGLEVGHLEARLGLVWV
# notes: as for B1
# B3: arginase Tli08105 (Thermococcus litoralis DSM 5473) (protein)
# chain: MLFGIPSSKKPNLYILGIPWDNSSSFRRGCAEGPRAIREATSEELYNSFNEELVNLTEHWSYKDLGDIKADTFEELVEKVNAIVRKHYNGELFLFLGGDHSITYATFKAIKEASNEDFGLIYFDAHPDMYPEYDGDEYSHACTVRRLIEEGWVKGENVVQIGVRAPTREQVEFAKEHGVKIISASGIYRSPVIQVPFEKAYLSFDMDVLDPAFAPGVGNPEPGGLSTRELVEVIKSLNVEIIAFDIVELNPKYDYKGISAFAAAKIIREVLGKAAKTK
# notes: as for B1
# Legend:
# Assay in all cases: Lineweaver-Burk plot of the Michaelis-Menten equation
# [1] = substrate: NC(=O)C[C@H](N)C(=O)O; format: biochemical, Thermococcus litoralis; conditions: 90 °C, pH 9.0, free enzyme
# Source text: Lineweaver-Burk plot of the Michaelis-Menten equation on asparaginase Tli10209
# [2] = substrate: NC(=O)C[C@H](N)C(=O)O; format: biochemical, Thermus thermophilus; conditions: 80 °C, pH 9.0, free enzyme
# Source text: Lineweaver-Burk plot of the Michaelis-Menten equation on asparaginase Ttha0067
# [3] = substrate: N=C(N)NCCC[C@H](N)C(=O)O; format: biochemical, Thermococcus litoralis; conditions: 70 °C, pH 10.0, free enzyme
# Source text: Lineweaver-Burk plot of the Michaelis-Menten equation on arginase Tli08105
protein,measurement,setting,value
B1,Km,[1],4.340 mM
same,kcat,[1],2080 s⁻¹
same,kcat/Km,[1],479000 M⁻¹ s⁻¹
B2,Km,[2],6.178 mM
same,kcat,[2],1210 s⁻¹
same,kcat/Km,[2],196000 M⁻¹ s⁻¹
B3,Km,[3],1.059 mM
same,Vmax,[3],961 µM/min
same,kcat,[3],1.25 s⁻¹
same,kcat/Km,[3],1350 M⁻¹ s⁻¹
